US20120058906A1 (published 2012)

Assays:
[1] = molecular target: T1, rHuman IGF-1 sR (IGF-1 sR), CF (R&D Systems Cat#391-GR) (human, UniProt P08069 31-932); experiment: MSD ECL multi-spot plate, antigen immobilized; Fab 40 nM; blank spot 518
T1 construct: Purchased soluble receptor; also called insulin-like growth factor-1 soluble receptor; IGF-R1

[2] = molecular target: T2, rHuman P-Cadherin/Fc Chimera, CF (R&D Systems Cat#861-PC) (human, UniProt P22223 108-654); experiment: as above
T2 construct: Purchased Fc chimera; not shown: Fc portion of the purchased chimera

[3] = molecular target: T3, Recombinant Human DLL4 (R&D Systems Cat#1506-D4/CF) (human, UniProt Q9NR61 27-524); experiment: as above
T3 construct: Purchased recombinant protein; also called delta-like protein 4

[4] = molecular target: T4, rHuman ErbB2/Fc Chimera, CF (R&D Systems Cat#1129-ER) (human, UniProt P04626 23-652); experiment: as above
T4 construct: Purchased Fc chimera; also called HER2/neu; not shown: Fc portion of the purchased chimera

[5] = molecular target: T5, rHuman EGF R/Fc Chimera, CF (R&D Systems Cat#344-ER) (human, UniProt P00533 25-645); experiment: as above
T5 construct: Purchased Fc chimera; not shown: Fc portion of the purchased chimera

[6] = molecular target: T6, rHuman HGF R/c-MET/Fc Chimera, CF (R&D Systems Cat#358-MT/CF) (human, UniProt P08581 25-932); experiment: as above
T6 construct: Purchased Fc chimera; also called HGF R/Fc; not shown: Fc portion of the purchased chimera

[7] = molecular target: T7, rHuman Notch-1/Fc Chimera, CF (R&D Systems Cat#3647-TK) (human, UniProt P46531 19-526); experiment: as above
T7 construct: Purchased Fc chimera; not shown: Fc portion of the purchased chimera

[8] = molecular target: T8, rHuman CD44/Fc Chimera, CF (R&D Systems Cat#3660-CD) (human, UniProt P16070 21-220); experiment: as above
T8 construct: Purchased Fc chimera; not shown: Fc portion of the purchased chimera

[9] = molecular target: T9, rHuman P-Cadherin/Fc Chimera, CF (R&D Systems Cat#861-PC) (human, UniProt P22223 108-654); experiment: MSD ECL titration, Fab 9.3 nM, blank 287
T9 construct: Bought Fc chimera; Fc part of the bought chimera not given

[10] = molecular target: T10, rHuman Erythropoietin R/Fc Chimera, CF (R&D Systems Cat#963-ER) (human, UniProt P19235 25-250); experiment: ECL (MSD multi-spot), antigen spotted on plate; Fab 22 nM; blank spot 289
T10 construct: Bought reagent; also called EPO R/Fc; Epo R; Fc part of the bought chimera not given
T10 sequence: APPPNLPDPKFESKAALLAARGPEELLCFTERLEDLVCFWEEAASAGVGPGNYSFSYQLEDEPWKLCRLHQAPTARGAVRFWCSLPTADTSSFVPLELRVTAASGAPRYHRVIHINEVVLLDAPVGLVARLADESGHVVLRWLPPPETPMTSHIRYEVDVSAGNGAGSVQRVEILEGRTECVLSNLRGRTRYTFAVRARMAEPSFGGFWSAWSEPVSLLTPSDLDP

[11] = molecular target: T11, Recombinant Human DLL4 (R&D Systems Cat#1506-D4/CF) (human, UniProt Q9NR61 27-524); experiment: as above
T11 construct: Bought reagent; also called delta-like protein 4

[12] = molecular target: T12, rHuman ErbB2/Fc Chimera, CF (R&D Systems Cat#1129-ER) (human, UniProt P04626 23-652); experiment: as above
T12 construct: Bought reagent; also called HER2/neu; human epidermal growth factor 2 receptor; Fc part of the bought chimera not given

[13] = molecular target: T13, rHuman EGF R/Fc Chimera, CF (R&D Systems Cat#344-ER) (human, UniProt P00533 25-645); experiment: as above
T13 construct: Bought reagent; also called epidermal growth factor receptor; Fc part of the bought chimera not given

[14] = molecular target: T14, rHuman HGF R/c-MET/Fc Chimera, CF (R&D Systems Cat#358-MT/CF) (human, UniProt P08581 25-932); experiment: as above
T14 construct: Bought reagent; also called HGF R/Fc; hepatocyte growth factor receptor; Fc part of the bought chimera not given

[15] = molecular target: T15, rHuman Notch-1/Fc Chimera, CF (R&D Systems Cat#3647-TK) (human, UniProt P46531 19-526); experiment: as above
T15 construct: Bought reagent; Fc part of the bought chimera not given

[16] = molecular target: T16, rHuman CD44/Fc Chimera, CF (R&D Systems Cat#3660-CD) (human, UniProt P16070 21-220); experiment: as above
T16 construct: Bought reagent; Fc part of the bought chimera not given

[17] = molecular target: T17, rHuman IGF-1 sR (IGF-1 sR), CF (R&D Systems Cat#391-GR) (human, UniProt P08069 31-932); experiment: as above
T17 construct: Bought soluble receptor; also called insulin-like growth factor-1 soluble receptor; IGF-R1

[18] = molecular target: T18, rHuman P-Cadherin/Fc Chimera, CF (R&D Systems Cat#861-PC) (human, UniProt P22223 108-654); experiment: as above
T18 construct: Bought reagent; also called CDH3; Fc part of the bought chimera not given
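Further: blank spot per well as comparator with Hit at signal to blank ratio of 4 or more.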

B1: Fab VH5-51_IGHD5-18*01>3_IGHJ4*01_G100K & V3-4_IGLJ1*01 (Fab, V domains shown)
VH: EVQLVQSGAEVKKPGESLKISCKGSGYSFTSYWIGWVRQMPGKGLEWMGIIYPGDSDTRYSPSFQGQVTISADKSISTAYLQWSSLKASDTAMYYCARRKYSYGYDYFDYWGQGTLVTVSS
VL: QTVVTQEPSFSVSPGGTVTLTCGLSSGSVSTSYYPSWYQQTPGQAPRTLIYSTNTRSSGVPDRFSGSILGNKAALTITGAQADDESDYYCVLYMGSGISYVFGTGTKVTVL
notes: It was expressed as a Fab: CH1 with tags from Plasmid A and lambda CL from Plasmid E; also called Fab No. 22
- ECL signal [1]: 1270 ECL signal
- ECL signal [2]: 744 ECL signal
- ECL signal [3]: 35900 ECL signal
- ECL signal [4]: 1390 ECL signal
- ECL signal [5]: 1150 ECL signal
- ECL signal [6]: 1310 ECL signal
- ECL signal [7]: 875 ECL signal
- ECL signal [8]: 857 ECL signal

B2: Fab VH1-46_IGHD6-6*01_IGHJ1*01 & L6_IGKJ1*01 (Fab, V domains shown)
VH: QVQLVQSGAEVKKPGASVKVSCKASGYTFTSYYMHWVRQAPGQGLEWMGIINPSGGSTSYAQKFQGRVTMTRDTSTSTVYMELSSLRSEDTAVYYCAREEYSSSSAEYFQHWGQGTLVTVSS
VL: not shown
notes: Expressed in E. coli as Fab: heavy chain with CH1 plus Flag and His tags from Plasmid A, kappa light chain constant region from Plasmid C; also called Fab No. 1
- ECL signal [9]: 452

B3: Fab VH1-46_IGHD3-10*01_IGHJ4*01 & B3_IGKJ1*01 (Fab, V domains shown)
VH: QVQLVQSGAEVKKPGASVKVSCKASGYTFTSYYMHWVRQAPGQGLEWMGIINPSGGSTSYAQKFQGRVTMTRDTSTSTVYMELSSLRSEDTAVYYCAREYYYGSGSYYNDYFDYWGQGTLVTVSS
VL: not shown
notes: also called IGHV1-46*01
- ECL signal [10]: 2240
- ECL signal [11]: 342
- ECL signal [12]: 363
- ECL signal [13]: 312
- ECL signal [14]: 203
- ECL signal [15]: 389
- ECL signal [16]: 317
- ECL signal [17]: 347
- ECL signal [18]: 215
